Test results taken from patent publication US20210388065A1 (published 2021).

B1: 414-3-2 antibody (antibody, V domains shown)
VH: QVQLVESGGGVVQPGRSLRLSCAASGFTFSSYAMHWVRQAPGKGLEWVALISYDGSNKYYADSVKGRFTISRDNSKNTLYLQMNSLRAEDTAVYYCARDGGGWFDPWGQGTLVTVSS
VL: QTVVTQPASVSGSPGQSITISCTGTSSDVGGYNYVSWYQQHPGKAPKLMIYDVSKRPSGVSNRFSGSKSGNTASLTISGLQAEDEADYYCSSYTSSSPWVFGGGTELTVL
B2: 105-43 antibody (antibody, V domains shown)
VH: EVQLVESGGGLVQPGGSLRLSCAASGFTFSSYDMHWVRQATGKGLEWISAIGTTGDIYYADSVKGRFTISRENAENSLYLQMNSLRAGDTAVYYCARYRGAFDVWGQGTMVTVSS
VL: EIVMTQSPVTLSLSPGERATLSCRASQSVGTYLAWYQQKPGQAPRLLIYDASNRATRIPARFSGSGSGTDFTLTISSLEPEDFAVYYCQQGSNWPLTFGGGTKVEIK
B3: 414-1 antibody (antibody, V domains shown)
VH: QVQLVQSGAEVKKPGASVKVSCKASGYTFTSYYMHWVRQAPGQGLEWMGIINPSGGSTSYAQKFQGRVTMTRDTSTSTVYMELSSLRSEDTAVYYCARGALGCSSTSCYPNNFDYWGQGTLVTVSS
VL: not shown
B4: 105-38 antibody (antibody, V domains shown)
VH: EVQLVESGGGLVQPGGSLRLSCAASGFTFSSYWMHWVRQAPGKGLVWVSRINSDGSSTSYADSVKGRFTISRDNAKNTLYLQMNSLRAEDTAVYYCARVQWLRGEFDYWGQGTLVTVSS
VL: DVVLTQPHSVSESPGKTVTISCTGSSGSIASNYVQWYQQRPGSAPTTVIYEDNQRPSGVPDRFSGSIDSSSNSASLTISGLKTEDEADYYCQSYDSSTDVVFGGGTELTVL
B5: 105-9 antibody (antibody, V domains shown)
VH: EVQLVESGGGLVKPGRSLRLSCTASGFTFGDYAMSWFRQAPGKGLEWVGFIRSKAYGWTTQYAASVKGRFTISRDDSKSIAYLQMKSLNSEDTAVYYCTRDPWGTTYFDYWGQGTLVTVSS
VL: EIVMTQSPATLSVSPGERATLSCRASQSVSSNLAWYQQKPGQGPRLLIYGASTRATGVPARFSGSGSGTDFTLTISSLQSEDFAIYYCQHYNNWFTFGQGTKVEIK

Experiments:
[1] = target: T1, SARS-CoV-2 Spike protein (Receptor Binding Domain, RBD) (UniProt P0DTC2 331-524); assay: ELISA
[2] = target: T1, SARS-CoV-2 Spike protein (Receptor …); assay: ELISA; remark: listed apart in the source

Binder | EC50 [1] | IC50 [2]
B1 | 6.66 nM | –
B2 | 12.1 nM | 59 nM
B3 | 1.26 nM | 6.68 nM
B4 | 0.425 nM | 0.598 nM
B5 | 15.1 nM | 25.2 nM
